Measured values taken from paper PMC11832219 (Molecular cell, 2024).

T1: MED17 (human (endogenous in 293-F), UniProt Q9NVC6 1-651)
T1 sequence (looked up): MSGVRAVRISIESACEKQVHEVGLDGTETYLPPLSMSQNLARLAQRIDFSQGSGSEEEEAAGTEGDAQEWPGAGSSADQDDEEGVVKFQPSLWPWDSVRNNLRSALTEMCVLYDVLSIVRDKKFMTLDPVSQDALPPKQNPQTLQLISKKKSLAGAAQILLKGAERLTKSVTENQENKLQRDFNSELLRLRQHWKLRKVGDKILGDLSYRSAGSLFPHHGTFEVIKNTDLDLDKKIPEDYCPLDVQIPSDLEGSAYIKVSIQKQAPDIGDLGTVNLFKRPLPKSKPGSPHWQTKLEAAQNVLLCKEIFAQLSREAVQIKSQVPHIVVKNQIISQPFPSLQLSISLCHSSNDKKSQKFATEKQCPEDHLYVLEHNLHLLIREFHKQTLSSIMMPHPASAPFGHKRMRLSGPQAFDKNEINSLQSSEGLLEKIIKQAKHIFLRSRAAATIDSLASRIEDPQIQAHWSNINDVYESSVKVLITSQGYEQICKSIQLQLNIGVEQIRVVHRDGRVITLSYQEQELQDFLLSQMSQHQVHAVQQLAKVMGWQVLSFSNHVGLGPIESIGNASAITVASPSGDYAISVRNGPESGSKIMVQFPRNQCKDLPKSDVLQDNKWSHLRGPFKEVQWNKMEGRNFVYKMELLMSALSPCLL

B1: Flag-tagged MED13 IDRc (residues 500–1069), expressed in 293-F cells (domain or fragment, human, UniProt Q9UHV7 500-1069, looked up)
chain: SAPDSQVRFSNIRTNDVAKTPQMHGTEMANSPQPPPLSPHPCDVVDEGVTKTPSTPQSQHFYQMPTPDPLVPSKPMEDRIDSLSQSFPPQYQEAVEPTVYVGTAVNLEEDEANIAWKYYKFPKKKDVEFLPPQLPSDKFKDDPVGPFGQESVTSVTELMVQCKKPLKVSDELVQQYQIKNQCLSAIASDAEQEPKIDPYAFVEGDEEFLFPDKKDRQNSEREAGKKHKVEDGTSSVTVLSHEEDAMSLFSPSIKQDAPRPTSHARPPSTSLIYDSDLAVSYTDLDNLFNSDEDELTPGSKKSANGSDDKASCKESKTGNLDPLSCISTADLHKMYPTPPSLEQHIMGFSPMNMNNKEYGSMDTTPGGTVLEGNSSSIGAQFKIEVDEGFCSPKPSEIKDFSYVYKPENCQILVGCSMFAPLKTLPSQYLPPIKLPEECIYRQSWTVGKLELLSSGPSMPFIKEGDGSNMDQEYGTAYTPQTHTSFGMPPSSAPPSNSGAGILPSPSTPRFPTPRTPRTPRTPRGAGGPASAQGSVKYENSDLYSPASTPSTCRPLNSVEPATVPSIPEAH

What was measured:
MED12 = MED12 (human (endogenous in 293-F), UniProt Q93074 1-2177); assay: cross-linking
MED12, sequence (Q93074 whole entry): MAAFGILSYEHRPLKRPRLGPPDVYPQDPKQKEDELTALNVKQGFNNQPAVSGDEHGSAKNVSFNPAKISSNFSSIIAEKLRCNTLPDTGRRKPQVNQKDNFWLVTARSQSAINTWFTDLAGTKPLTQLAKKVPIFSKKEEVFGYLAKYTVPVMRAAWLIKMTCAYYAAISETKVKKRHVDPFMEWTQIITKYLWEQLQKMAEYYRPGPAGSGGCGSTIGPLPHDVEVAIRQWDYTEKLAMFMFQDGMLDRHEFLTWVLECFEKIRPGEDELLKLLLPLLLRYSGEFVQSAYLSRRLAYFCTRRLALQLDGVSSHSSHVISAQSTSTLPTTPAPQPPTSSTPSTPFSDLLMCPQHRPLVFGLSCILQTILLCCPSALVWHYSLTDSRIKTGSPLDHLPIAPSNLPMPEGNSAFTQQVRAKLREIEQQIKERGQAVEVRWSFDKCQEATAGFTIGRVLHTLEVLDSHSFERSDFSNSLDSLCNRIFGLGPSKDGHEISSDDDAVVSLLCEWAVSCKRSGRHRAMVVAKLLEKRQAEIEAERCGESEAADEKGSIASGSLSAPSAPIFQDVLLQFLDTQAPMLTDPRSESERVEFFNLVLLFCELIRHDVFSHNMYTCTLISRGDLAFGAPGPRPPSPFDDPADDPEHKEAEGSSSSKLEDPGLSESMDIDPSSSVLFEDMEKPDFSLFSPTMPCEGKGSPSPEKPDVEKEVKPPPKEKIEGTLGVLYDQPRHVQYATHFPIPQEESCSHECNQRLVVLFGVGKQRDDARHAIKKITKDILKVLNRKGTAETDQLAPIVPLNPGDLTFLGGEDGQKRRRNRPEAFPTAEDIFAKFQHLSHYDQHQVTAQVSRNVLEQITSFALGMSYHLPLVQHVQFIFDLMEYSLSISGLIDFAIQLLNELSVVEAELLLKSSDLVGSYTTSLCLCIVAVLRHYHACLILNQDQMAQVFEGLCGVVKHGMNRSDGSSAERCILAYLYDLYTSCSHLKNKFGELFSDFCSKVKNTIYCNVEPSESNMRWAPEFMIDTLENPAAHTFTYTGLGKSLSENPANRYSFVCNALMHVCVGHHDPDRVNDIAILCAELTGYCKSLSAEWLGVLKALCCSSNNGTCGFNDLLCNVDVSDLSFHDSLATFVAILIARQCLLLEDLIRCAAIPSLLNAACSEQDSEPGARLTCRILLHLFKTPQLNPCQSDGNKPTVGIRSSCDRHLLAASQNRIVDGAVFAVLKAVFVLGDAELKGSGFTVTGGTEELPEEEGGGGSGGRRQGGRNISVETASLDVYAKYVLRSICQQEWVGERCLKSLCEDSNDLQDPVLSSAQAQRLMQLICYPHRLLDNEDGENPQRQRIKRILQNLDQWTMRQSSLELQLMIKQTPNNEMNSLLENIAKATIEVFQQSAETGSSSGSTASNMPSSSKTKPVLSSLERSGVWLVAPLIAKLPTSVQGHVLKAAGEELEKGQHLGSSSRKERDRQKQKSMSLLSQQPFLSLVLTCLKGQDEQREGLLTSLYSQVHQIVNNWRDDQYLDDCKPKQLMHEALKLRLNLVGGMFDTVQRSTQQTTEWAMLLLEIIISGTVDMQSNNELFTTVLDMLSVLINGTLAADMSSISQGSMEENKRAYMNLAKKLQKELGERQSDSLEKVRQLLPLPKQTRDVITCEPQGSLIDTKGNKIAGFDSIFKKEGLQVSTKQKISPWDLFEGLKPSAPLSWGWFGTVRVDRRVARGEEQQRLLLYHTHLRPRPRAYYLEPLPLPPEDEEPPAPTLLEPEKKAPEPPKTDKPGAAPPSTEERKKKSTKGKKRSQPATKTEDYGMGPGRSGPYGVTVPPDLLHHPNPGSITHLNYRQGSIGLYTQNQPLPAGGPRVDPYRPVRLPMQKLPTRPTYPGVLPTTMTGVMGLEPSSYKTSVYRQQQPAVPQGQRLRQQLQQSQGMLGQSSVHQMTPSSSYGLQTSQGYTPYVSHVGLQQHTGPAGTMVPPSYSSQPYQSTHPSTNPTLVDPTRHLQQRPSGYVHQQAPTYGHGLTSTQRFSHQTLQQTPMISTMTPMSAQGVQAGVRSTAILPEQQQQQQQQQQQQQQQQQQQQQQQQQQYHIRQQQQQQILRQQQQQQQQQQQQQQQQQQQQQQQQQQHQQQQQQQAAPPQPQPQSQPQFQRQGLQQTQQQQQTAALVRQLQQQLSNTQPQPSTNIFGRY

MED13 [1] = target: T2, MED13 (human (endogenous in 293-F), UniProt Q9UHV7 1-2174); assay: cryo-EM structure
T2 sequence (Q9UHV7 whole entry): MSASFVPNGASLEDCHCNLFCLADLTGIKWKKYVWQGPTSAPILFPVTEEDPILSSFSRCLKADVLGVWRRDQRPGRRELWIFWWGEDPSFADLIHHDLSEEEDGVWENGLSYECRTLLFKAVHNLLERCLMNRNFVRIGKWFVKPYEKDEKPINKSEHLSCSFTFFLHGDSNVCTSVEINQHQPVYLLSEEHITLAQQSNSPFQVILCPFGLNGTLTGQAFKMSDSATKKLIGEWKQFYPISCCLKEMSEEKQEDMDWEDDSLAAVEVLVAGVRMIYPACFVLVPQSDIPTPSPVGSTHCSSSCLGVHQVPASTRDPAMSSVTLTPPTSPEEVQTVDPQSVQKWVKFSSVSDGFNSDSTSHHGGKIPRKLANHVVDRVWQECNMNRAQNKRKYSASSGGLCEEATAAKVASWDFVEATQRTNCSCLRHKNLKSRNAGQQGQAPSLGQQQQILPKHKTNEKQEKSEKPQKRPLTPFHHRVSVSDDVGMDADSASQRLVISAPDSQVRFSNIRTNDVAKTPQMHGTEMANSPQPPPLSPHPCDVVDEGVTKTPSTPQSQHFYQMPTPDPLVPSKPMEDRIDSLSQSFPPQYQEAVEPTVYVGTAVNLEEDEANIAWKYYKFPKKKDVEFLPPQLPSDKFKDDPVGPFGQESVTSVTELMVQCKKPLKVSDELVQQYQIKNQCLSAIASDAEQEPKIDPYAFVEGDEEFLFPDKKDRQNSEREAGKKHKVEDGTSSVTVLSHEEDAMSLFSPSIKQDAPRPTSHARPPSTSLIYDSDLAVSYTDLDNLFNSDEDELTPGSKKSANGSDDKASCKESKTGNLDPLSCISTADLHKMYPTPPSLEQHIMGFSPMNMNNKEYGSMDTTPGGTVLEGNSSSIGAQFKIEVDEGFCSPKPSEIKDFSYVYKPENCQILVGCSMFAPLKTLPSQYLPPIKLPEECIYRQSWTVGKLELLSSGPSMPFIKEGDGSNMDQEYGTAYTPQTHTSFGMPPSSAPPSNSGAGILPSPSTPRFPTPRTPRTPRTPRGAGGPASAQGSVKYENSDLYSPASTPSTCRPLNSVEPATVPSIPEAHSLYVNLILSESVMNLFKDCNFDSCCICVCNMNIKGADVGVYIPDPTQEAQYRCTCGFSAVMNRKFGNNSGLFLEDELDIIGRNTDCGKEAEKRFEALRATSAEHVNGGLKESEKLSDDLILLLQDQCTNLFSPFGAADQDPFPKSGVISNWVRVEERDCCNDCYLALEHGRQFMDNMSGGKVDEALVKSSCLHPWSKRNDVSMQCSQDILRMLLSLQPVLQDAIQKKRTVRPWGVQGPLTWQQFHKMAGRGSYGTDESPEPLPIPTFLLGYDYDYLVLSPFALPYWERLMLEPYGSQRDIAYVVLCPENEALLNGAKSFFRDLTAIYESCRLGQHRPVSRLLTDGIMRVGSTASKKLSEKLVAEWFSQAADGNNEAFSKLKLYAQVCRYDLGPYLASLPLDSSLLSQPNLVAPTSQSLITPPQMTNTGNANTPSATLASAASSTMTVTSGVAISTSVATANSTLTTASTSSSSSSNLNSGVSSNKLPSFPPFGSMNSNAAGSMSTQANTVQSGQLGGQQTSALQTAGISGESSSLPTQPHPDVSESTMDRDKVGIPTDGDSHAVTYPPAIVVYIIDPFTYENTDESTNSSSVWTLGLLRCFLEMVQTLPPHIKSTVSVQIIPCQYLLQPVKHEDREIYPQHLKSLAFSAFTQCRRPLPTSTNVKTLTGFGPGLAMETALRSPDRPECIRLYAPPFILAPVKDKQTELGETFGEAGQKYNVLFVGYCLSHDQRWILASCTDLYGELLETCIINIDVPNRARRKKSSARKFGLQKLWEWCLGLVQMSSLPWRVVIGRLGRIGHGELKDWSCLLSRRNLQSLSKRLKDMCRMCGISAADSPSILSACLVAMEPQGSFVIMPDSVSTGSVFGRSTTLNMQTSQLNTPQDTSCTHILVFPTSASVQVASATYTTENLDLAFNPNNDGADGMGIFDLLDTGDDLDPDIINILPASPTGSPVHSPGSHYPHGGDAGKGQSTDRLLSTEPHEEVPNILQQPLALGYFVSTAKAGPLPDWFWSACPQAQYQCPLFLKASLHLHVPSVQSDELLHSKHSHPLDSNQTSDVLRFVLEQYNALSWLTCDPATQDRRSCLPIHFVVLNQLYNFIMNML

MED17 = target: T1, MED17; assay: cryo-EM structure
MED14 = MED14 (human (endogenous in 293-F), UniProt O60244 1-1454); assay: cryo-EM structure
[2] = target: B1; assay: cryo-EM structure
MED12L = MED12L (human (endogenous in 293-F), UniProt Q86YW9 1-2145); assay: cross-linking
MED13 [3] = target: T2, MED13; assay: cross-linking
[4] = target: CDK8-Flag (recombinant CKM subunit) (human, UniProt P49336 1-464); assay: cryo-EM structure
CDK8-Flag (recombinant CKM subunit), sequence (P49336 whole entry): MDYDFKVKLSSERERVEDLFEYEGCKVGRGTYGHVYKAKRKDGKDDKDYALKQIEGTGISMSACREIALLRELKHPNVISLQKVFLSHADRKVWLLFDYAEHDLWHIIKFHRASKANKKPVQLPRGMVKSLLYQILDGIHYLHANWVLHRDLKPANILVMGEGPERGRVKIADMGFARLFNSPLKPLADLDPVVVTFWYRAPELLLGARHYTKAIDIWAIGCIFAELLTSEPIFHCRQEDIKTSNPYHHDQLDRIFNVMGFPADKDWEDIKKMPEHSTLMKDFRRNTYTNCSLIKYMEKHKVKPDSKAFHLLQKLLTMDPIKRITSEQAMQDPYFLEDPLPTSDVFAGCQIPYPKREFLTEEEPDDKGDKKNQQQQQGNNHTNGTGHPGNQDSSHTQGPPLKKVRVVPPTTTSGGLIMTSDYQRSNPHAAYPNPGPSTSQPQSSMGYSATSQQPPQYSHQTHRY

| binding result (MED12) | binding result [2] | Binder | also measured |
| --- | --- | --- | --- |
| binds | – | MED19 (natural protein, human (endogenous in 293-F), UniProt A0JLT2 1-244, looked up) MENFTALFGAQADPPPPPTALGFGPGKPPPPPPPPAGGGPGTAPPPTAATAPPGADKSGAGCGPFYLMRELPGSTELTGSTNLITHYNLEQAYNKFCGKKVKEKLSNFLPDLPGMIDLPGSHDNSSLRSLIEKPPILSSSFNPITGTMLAGFRLHTGPLPEQCRLMHIQPPKKKNKHKHKQSRTQDPVPPETPSDSDHKKKKKKKEEDPDRKRKKKEKKKKKNRHSPDHPGMGSSQASSSSSLR | binding result (MED13 [1]): binds |
| – | – | B1 | binding result (MED17): binds; binding result (MED14): binds |
| – | binds | MED21 (natural protein, human (endogenous in 293-F), UniProt Q13503 1-144, looked up) MADRLTQLQDAVNSLADQFCNAIGVLQQCGPPASFNNIQTAINKDQPANPTEEYAQLFAALIARTAKDIDVLIDSLPSEESTAALQAASLYKLEEENHEAATCLEDVVYRGDMLLEKIQSALADIAQSQLKTRSGTHSQSLPDS | – |
| – | binds | MED6 (natural protein, human (endogenous in 293-F), UniProt O75586 1-246, looked up) MAAVDIRDNLLGISWVDSSWIPILNSGSVLDYFSERSNPFYDRTCNNEVVKMQRLTLEHLNQMVGIEYILLHAQEPILFIIRKQQRQSPAQVIPLADYYIIAGVIYQAPDLGSVINSRVLTAVHGIQSAFDEAMSYCRYHPSKGYWWHFKDHEEQDKVRPKAKRKEEPSSIFQRQRVDALLLDLRQKFPPKFVQLKPGEKPVPVDQTKKEAEPIPETVKPEEKETTKNVQQTVSAKGPPEKRMRLQ | – |
| binds | – | MED10 (natural protein, human (endogenous in 293-F), UniProt Q9BTT4 1-135, looked up) MAEKFDHLEEHLEKFVENIRQLGIIVSDFQPSSQAGLNQKLNFIVTGLQDIDKCRQQLHDITVPLEVFEYIDQGRNPQLYTKECLERALAKNEQVKGKIDTMKKFKSLLIQELSKVFPEDMAKYRSIRGEDHPPS | binding result (MED12L): binds; binding result (MED13 [3]): binds |
| – | binds | MED7 (natural protein, human (endogenous in 293-F), UniProt O43513 1-233, looked up) MGEPQQVSALPPPPMQYIKEYTDENIQEGLAPKPPPPIKDSYMMFGNQFQCDDLIIRPLESQGIERLHPMQFDHKKELRKLNMSILINFLDLLDILIRSPGSIKREEKLEDLKLLFVHVHHLINEYRPHQARETLRVMMEVQKRQRLETAERFQKHLERVIEMIQNCLASLPDDLPHSEAGMRVKTEPMDADDSNNCTGQNEHQRENSGHRRDQIIEKDAALCVLIDEMNERP | – |
| – | – | CCNC-6xHis (recombinant CKM subunit) (natural protein, human) MAGNFWQSSHYLQWILDKQDLLKERQKDLKFLSEEEYWKLQIFFTNVIQALGEHLKLRQQVIATATVYFKRFYARYSLKSIDPVLMAPTCVFLASKVEEFGVVSNTRLIAAATSVLKTRFSYAFPKEFPYRMNHILECEFYLLELMDCCLIVYHPYRPLLQYVQDMGQEDMLLPLAWRIVNDTYRTDLCLLYPPFMIALACLHVACVVQQKDARQWFAELSVDMEKILEIIRVILKLYEQWKNFDERKEMATILSKMPKPKPPPNSEGEQGPNGSQNSSYSQS | binding result [4]: binds |
| binds | – | CCNC (natural protein, human (endogenous in 293-F), UniProt P24863 1-283, looked up) MAGNFWQSSHYLQWILDKQDLLKERQKDLKFLSEEEYWKLQIFFTNVIQALGEHLKLRQQVIATATVYFKRFYARYSLKSIDPVLMAPTCVFLASKVEEFGVVSNTRLIAAATSVLKTRFSYAFPKEFPYRMNHILECEFYLLELMDCCLIVYHPYRPLLQYVQDMGQEDMLLPLAWRIVNDTYRTDLCLLYPPFMIALACLHVACVVQQKDARQWFAELSVDMEKILEIIRVILKLYEQWKNFDERKEMATILSKMPKPKPPPNSEGEQGPNGSQNSSYSQS | – |
| – | – | MED31 (natural protein, human (endogenous in 293-F), UniProt Q9Y3C7 1-131, looked up) MAAAVAMETDDAGNRLRFQLELEFVQCLANPNYLNFLAQRGYFKDKAFVNYLKYLLYWKDPEYAKYLKYPQCLHMLELLQYEHFRKELVNAQCAKFIDEQQILHWQHYSRKRMRLQQALAEQQQQNNTSGK | binding result (MED13 [3]): binds |
| – | binds | MED8 (natural protein, human (endogenous in 293-F), UniProt Q96G25 1-268, looked up) MQREEKQLEASLDALLSQVADLKNSLGSFICKLENEYGRLTWPSVLDSFALLSGQLNTLNKVLKHEKTPLFRNQVIIPLVLSPDRDEDLMRQTEGRVPVFSHEVVPDHLRTKPDPEVEEQEKQLTTDAARIGADAAQKQIQSLNKMCSNLLEKISKEERESESGGLRPNKQTFNPTDTNALVAAVAFGKGLSNWRPSGSSGPGQAGQPGAGTILAGTSGLQQVQMAGAPSQQQPMLSGVQMAQAGQPGKMPSGIKTNIKSASMHPYQR | – |
